Two molecules from patent US20130189284A1 (TECHNION RESEARCH AND DEVELOPMENT FOUNDATION, published 2013) can be followed below.

Assay [1] concerns the target DR4/HA307-319 complex presented on cells (human, UniProt P01903 26-254; P01911 30-266). Nature of the assay: flow cytometry on peptide-loaded Preiss cells. Background: In flow cytometry, cells or beads pass a laser one at a time.
Assay [2] addresses HA307-319 peptide ([…]), alone. Put plainly: ELISA, immobilized peptide. A general note: An ELISA detects its analyte on a solid surface through an enzyme-linked reagent.

B1: G3H8 Fab (Anti HLA-DR4/GAD555-567 Fab) (Fab, V domains shown)
VH: QVQLVQSGAEVKKPGASVKVSCKASGYTFTTYGISWVRQAPGQGLEWMGWISAYNGHTNYAQMLQGRVTMTTDTSTSTAYMELRGLRSDDTAVYYCAREAYASYGSGSYWTDYWGQGTLVTVSS
VL: ETTLTQSPATLSVSPGERVTLSCRASQSVGSNLAWYQQKFGQAPRLLIYDASTRATGIPARFSGSGSGTEFTLTISRLEPEDFAVYYCHQYGSSPRTFGQGTKVDIKR
notes: also called Fab G3H8; G3H8 TCRL Fab
Consider B1, for which the binding result is given as “no binding (tested: 1-5 µg of specific Fab per 10^6 cells)” in assay [1] and “no binding (tested: 5 µg/ml soluble purified Fab)” in assay [2].

B2: G1H12 Fab (Anti HLA-DR4/GAD555-567 Fab) (Fab, V domains shown)
VH: QVQLVQSGAEVKKPGASVKVSCKASGYTFTSYGISWVRQAPGQGLEWMGGIIPIFGTANYAQKFQGRVTITADKSTSTAYMELSSLRSEDTAVYYCARDPQSYYYDSSGFDYWGQGTLVTVSS
VL: QSVLTQPPSVSAAPGQKVTISCSGSSSNIGNNYVSWYQQLPGTAPKLLIYDNNKRPSGIPDRFSGSKSGTSATLGITGLQTGDEADYYCGTWDSSLSVWVFGGGTKLTVLG
Take B2: the figures for the binding result in assay [1] and in assay [2] were “no binding (tested: 1-5 µg of specific Fab per 10^6 cells)” and “no binding (tested: 5 µg/ml soluble purified Fab)”, respectively.
